Patent US20240132578A1

Tests used:
Assay in all cases: cell-based or functional assay
[1] = target: HIV-1 Env of isolate MGRM-G-025 (subtype G) (HIV-1)
[2] = target: HIV-1 Env of isolate MG RM-A-007 (pseudovirus) (HIV-1)
[3] = target: HIV-1 Env of isolate MGRM-D-003 (HIV-1)
[4] = target: HIV-1 Env of pseudovirus isolate APV-6 (clade B) (HIV-1)
[5] = target: HIV-1 Env of isolate 92TH021 (pseudovirus) (HIV-1)
[6] = target: HIV-1 Env of isolate MGRM-C-025 (subtype C), on pseudovirus (HIV-1)
[7] = target: HIV-1 Env of isolate 92UG114 (HIV-1)
[8] = target: HIV-1 Env of isolate MGRM-G-027 (subtype G) (HIV-1)
[9] = target: HIV-1 Env of isolate MGRM-D-014 (pseudovirus) (HIV-1)
[10] = target: HIV-1 Env of isolate MGRM-D-002 (pseudovirus) (HIV-1)
[11] = target: HIV-1 Env of isolate MGRM-A-009 (subtype A) (HIV-1)
[12] = target: HIV-1 Env of isolate 92UG001 (pseudovirus) (HIV-1)
[13] = target: HIV-1 Env of isolate 92UG024 (pseudovirus) (HIV-1)
[14] = target: HIV-1 JR-CSF Env D417A (HIV-1 (isolate JR-CSF)) (UniProt P20871)
[15] = target: HIV-1 Env of isolate MGRM-AG-009 (subtype AG) (HIV-1)
[16] = target: HIV-1 Env of pseudovirus isolate MGRM-C-010 (clade C) (HIV-1)
[17] = target: HIV-1 JR-CSF Env Q422A (HIV-1 (isolate JR-CSF)) (UniProt P20871)
[18] = target: HIV-1 MGRM-C-028 Env (HIV-1)
[19] = target: HIV-1 92TH021 envelope protein (Env) on pseudovirus (HIV-1)
[20] = target: HIV-1 envelope glycoprotein (Env) of isolate MG RM-AG-006 (HIV-1)
[21] = target: HIV-1 Env of pseudovirus MGRM-D-018 (HIV-1)
[22] = target: HIV-1 envelope glycoprotein (Env) of isolate MG RM-AG-008 (HIV-1)
[23] = target: HIV-1 envelope glycoprotein (Env) of isolate MGRM-AE-007 (HIV-1)
[24] = target: HIV-1 Env of pseudovirus MGRM-D-016 (HIV-1)

Chain of 4993_K13 (PGT-141) (antibody) (VH): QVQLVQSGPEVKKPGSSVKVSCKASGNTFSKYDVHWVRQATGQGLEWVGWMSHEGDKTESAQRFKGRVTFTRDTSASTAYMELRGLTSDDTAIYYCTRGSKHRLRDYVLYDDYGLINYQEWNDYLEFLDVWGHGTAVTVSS
Chain of 4993_K13 (PGT-141) (antibody) (VL): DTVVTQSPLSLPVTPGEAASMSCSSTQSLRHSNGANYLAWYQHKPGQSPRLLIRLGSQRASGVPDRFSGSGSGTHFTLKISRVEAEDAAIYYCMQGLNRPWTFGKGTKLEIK
Chain of PGT-145 (4995_P16) (antibody) (VH): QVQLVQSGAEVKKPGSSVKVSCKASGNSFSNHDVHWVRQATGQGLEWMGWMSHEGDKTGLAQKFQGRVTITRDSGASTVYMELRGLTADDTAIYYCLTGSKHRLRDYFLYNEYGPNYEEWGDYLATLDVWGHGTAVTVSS
Chain of PGT-145 (4995_P16) (antibody) (VL): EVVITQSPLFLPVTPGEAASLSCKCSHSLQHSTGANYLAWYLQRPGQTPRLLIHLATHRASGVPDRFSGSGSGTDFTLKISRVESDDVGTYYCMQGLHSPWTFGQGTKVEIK
Chain of PGT-142 (4995_E20) (antibody) (VH): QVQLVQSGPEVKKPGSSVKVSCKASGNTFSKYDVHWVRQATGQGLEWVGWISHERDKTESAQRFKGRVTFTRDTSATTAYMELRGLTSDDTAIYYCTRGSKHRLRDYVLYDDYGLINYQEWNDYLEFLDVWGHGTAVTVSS
Chain of PGT-144 (4970_K22) (antibody) (VH): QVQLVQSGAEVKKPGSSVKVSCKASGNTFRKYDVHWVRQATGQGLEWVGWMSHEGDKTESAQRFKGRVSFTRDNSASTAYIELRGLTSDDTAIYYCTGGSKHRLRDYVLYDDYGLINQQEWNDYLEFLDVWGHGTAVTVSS
Chain of PGT-144 (4970_K22) (antibody) (VL): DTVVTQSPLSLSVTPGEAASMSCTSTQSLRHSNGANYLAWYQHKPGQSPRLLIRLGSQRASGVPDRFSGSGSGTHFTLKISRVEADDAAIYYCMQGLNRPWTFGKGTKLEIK
Chain of 4980_N08 (PGT-143) (antibody) (VH): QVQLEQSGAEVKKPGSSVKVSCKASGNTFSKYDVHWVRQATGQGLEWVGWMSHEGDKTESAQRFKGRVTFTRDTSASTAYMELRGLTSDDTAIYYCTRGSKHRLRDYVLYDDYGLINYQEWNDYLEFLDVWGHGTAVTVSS
Chain of 4980_N08 (PGT-143) (antibody) (VL): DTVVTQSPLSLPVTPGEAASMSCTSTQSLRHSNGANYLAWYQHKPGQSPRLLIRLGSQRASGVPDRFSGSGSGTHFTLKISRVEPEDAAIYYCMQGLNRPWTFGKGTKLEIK
Chain of 5329_C19 (PGT-136) (antibody) (VH): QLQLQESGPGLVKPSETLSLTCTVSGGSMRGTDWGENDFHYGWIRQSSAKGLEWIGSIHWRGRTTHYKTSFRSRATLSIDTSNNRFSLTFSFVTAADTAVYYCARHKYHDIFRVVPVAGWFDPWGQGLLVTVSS
Chain of 5329_C19 (PGT-136) (antibody) (VL): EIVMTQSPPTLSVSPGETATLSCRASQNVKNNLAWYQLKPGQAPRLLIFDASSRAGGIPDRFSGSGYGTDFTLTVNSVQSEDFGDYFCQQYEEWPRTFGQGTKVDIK

| Substance | IC50 (µg/mL), pseudovirus neutralization [1] [µg/mL] | IC50 (µg/mL), single-round pseudovirus neutralization [2] [µg/mL] | IC50 (µg/mL), pseudovirus neutralization [3] [µg/mL] | IC50, pseudovirus neutralization [4] [µg/mL] | IC50 (µg/mL), single-round pseudovirus neutralization [5] [µg/mL] | IC50, single-round pseudovirus neutralization [6] [µg/mL] | IC50 (µg/mL), pseudovirus neutralization [7] [µg/mL] | IC50 (µg/mL), pseudovirus neutralization [8] [µg/mL] | IC50 (µg/mL), pseudovirus neutralization [9] [µg/mL] | IC50 (µg/mL), pseudovirus neutralization [10] [µg/mL] | IC50, pseudovirus neutralization [11] [µg/mL] | IC50 (µg/mL), pseudovirus neutralization [12] [µg/mL] | IC50 (µg/mL), pseudovirus neutralization [13] [µg/mL] | IC50, pseudovirus neutralization [15] [µg/mL] | IC50, pseudovirus neutralization [16] [µg/mL] | IC50 [20] [µg/mL] | IC50, pseudovirus neutralization [21] [µg/mL] | IC50 [22] [µg/mL] | IC50 [23] [µg/mL] | IC50, pseudovirus neutralization [24] [µg/mL] | further results |
| --- | --- | --- | --- | --- | --- | --- | --- | --- | --- | --- | --- | --- | --- | --- | --- | --- | --- | --- | --- | --- | --- |
| 4970_K22 (PGT-144) (antibody) | > 50 | > 50 | > 50 | > 50 | 0.052 | 17.6 | > 50 | > 50 |  |  |  |  |  |  |  |  |  |  |  |  |  |
| 4980_N08 (PGT-143) (antibody) | > 50 | > 50 | > 50 | 14 | 0.003 | 0.336 | > 50 | > 50 |  |  |  |  |  |  |  |  |  |  |  |  |  |
| 4993_K13 (PGT-141) (antibody) | > 50 | > 50 | > 50 | 14.2 | 0.001 | 0.247 | > 50 | > 50 |  |  |  |  |  |  |  |  |  |  |  |  |  |
| 4995_E20 (PGT-142) (antibody) | > 50 | > 50 | > 50 | 4.72 | 0.002 | 0.183 | > 50 | > 50 |  |  |  |  |  |  |  |  |  |  |  |  |  |
| 4995_P16 (PGT-145) (antibody) | > 50 | > 50 | 0.006 | 0.104 | 0.013 | 0.044 | 20.1 | 0.433 |  |  |  |  |  |  |  |  |  |  |  |  |  |
| 5114_A19 (PGT-128) (antibody) |  |  |  |  |  |  |  |  | 0.013 | 0.011 | 0.005 | > 50 | > 50 | 0.021 | > 50 |  |  |  |  |  | Fold IC50 increase relative to wild-type (pseudovirus neutralization) [14]: 0.5 fold; Fold IC50 increase relative to wild-type (pseudovirus neutralization) [17]: 0.2 fold |
| 5136_H01 (PGT-131) (antibody) |  |  |  |  |  |  |  |  | 0.516 | 11.2 | 0.035 | > 50 | > 50 | > 50 | > 50 |  |  |  |  |  | Fold IC50 increase relative to wild-type (pseudovirus neutralization) [14]: 1 fold; Fold IC50 increase relative to wild-type (pseudovirus neutralization) [17]: 1.9 fold |
| 5147_N06 (PGT-130) (antibody) |  |  |  |  |  |  |  |  | 0.061 | 0.869 | 0.308 | > 50 | > 50 | 9.46 | > 50 |  |  |  |  |  | IC50, pseudovirus neutralization [18]: > 10 µg/mL; IC50 (ug/mL), pseudovirus neutralization [19]: 0.0082 µg/mL; Fold IC50 increase relative to wild-type (pseudovirus neutralization) [14]: 1 fold; Fold IC50 increase relative to wild-type (pseudovirus neutralization) [17]: 1 fold |
| 5329_C19 (PGT-136) (antibody) |  |  |  |  |  |  |  |  | > 50 | > 50 | > 50 | > 50 | 0.052 | > 50 | > 50 |  |  |  |  |  | IC50 (ug/mL), pseudovirus neutralization [19]: > 10 µg/mL |
| 5343_B08 (PGT-135) (antibody) |  |  |  |  |  |  |  |  | 2.21 | > 50 | > 50 | > 50 | 0.01 | > 50 | > 50 |  |  |  |  |  | IC50 (ug/mL), pseudovirus neutralization [19]: > 10 µg/mL; Fold IC50 increase relative to wild-type (pseudovirus neutralization) [14]: 5 fold; Fold IC50 increase relative to wild-type (pseudovirus neutralization) [17]: 0.8 fold |
| PGT-141 (4964_G22; 4993_K13) (antibody) |  |  |  |  |  |  |  |  |  |  |  |  |  |  |  | > 50 | > 50 | 19.2 | 33.1 | > 50 |  |
| PGT-142 (4995_E20) (antibody) |  |  |  |  |  |  |  |  |  |  |  |  |  |  |  | > 50 | > 50 | 12.1 | 6.7 | > 50 |  |
| PGT-143 (4980_N08) (antibody) |  |  |  |  |  |  |  |  |  |  |  |  |  |  |  | > 50 | > 50 | 34 | 13.6 | > 50 |  |
| PGT-144 (4970_K22) (antibody) |  |  |  |  |  |  |  |  |  |  |  |  |  |  |  | > 50 | > 50 | > 50 | > 50 | > 50 |  |
| PGT-145 (4995_P16) (antibody) |  |  |  |  |  |  |  |  |  |  |  |  |  |  |  | 6.6 | 0.065 | 0.244 | 0.181 | > 50 |  |
| VRC01 (antibody) | 0.292 | 12.6 | 2.06 | 1.81 | 0.616 | 2.36 | 0.33 | 0.36 |  |  |  |  |  |  |  | 0.344 | > 50 | 0.124 | 0.835 | 0.452 |  |
